According to the supplement of paper PMC9170038:

System: MS2 coat protein
Assay: apparent KD of MS2 coat protein; designed switch direction (-1 OFF switch, 1 ON switch): -1; higher = weaker reporter binding
Conditions: Eterna round: R98
Protocol: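 RNA-MaP: designed FMN/MS2 RNA switches (84 nt design region) are transcribed on-chip within common flanks and titrated with SNAP-549-labelled MS2 coat protein (about 1-3000 nM) in 100 mM Tris pH 7.5, 80 mM KCl, 4 mM MgCl2, without or with 200 uM FMN. Median apparent KD per design; activation ratio = KD,OFF / KD,ON.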

AGCUGUGGCCGAGGAUAUCUAUCUUCAAUAACCGAAAUAUAAUCGGACAUGAGGAUCACCCAUGUAGAGAAGGCGGUCUCAGCA [Eli xng2 2.033]
apparent KD of MS2 coat protein (input ligand: FMN 200 uM): 100 nM | apparent KD of MS2 coat protein (input ligand: none): 37.7 nM

AUGACAGGCAAAGCGCAACGGCGAACAUGAGGAUCACCCAUGUAGGAUAUGCUACACAAAGUGUAGCAGAAGGACAUACGACGA [Ex NG2 #82]
apparent KD of MS2 coat protein (input ligand: FMN 200 uM): 88.6 nM | apparent KD of MS2 coat protein (input ligand: none): 41.2 nM

AUGCUUCACACAGGAUAUACAUGAGGAUCACCCAUGUGUGGGCGGUAGCUGACACGAGCUACCGGGUAGAAGGGUGUGAAGCAU [xclu_NG2_cac21]
apparent KD of MS2 coat protein (input ligand: FMN 200 uM): 127 nM | apparent KD of MS2 coat protein (input ligand: none): 32.6 nM

CCAUACAUGAGGAUCACCCAUGACAUGAGGAUCACCCAUGUGCAGGAUAUACGUGAUAUAAUAAAGUAGAAGGGCAGACCAAAA [LRO002_Exclusion NG 3]
apparent KD of MS2 coat protein (input ligand: FMN 200 uM): 87.4 nM | apparent KD of MS2 coat protein (input ligand: none): 74.2 nM

GCACUGGAUGUAGGAUAUCAGGACGAUAAGUCCUGAGAAGGACAUGAGGAUCACCCAUGUGAAUAAAACCAGUGCAAUAAUAUA [Denovo Exng1 22]
apparent KD of MS2 coat protein (input ligand: FMN 200 uM): 30.9 nM | apparent KD of MS2 coat protein (input ligand: none): 13.4 nM

UAUAUAAUAAGAGCUGGAACUCAAACAUGAGGAUCACCCAUGUAGGAUAUCAGCACGAUAAGUGCUGAGAAGGACAACCAGCUC [Denovo 75]
apparent KD of MS2 coat protein (input ligand: FMN 200 uM): 21.2 nM | apparent KD of MS2 coat protein (input ligand: none): 17.6 nM

UAUAUAAUUAAGAGCUGGACCAAAACAUGAGGAUCACCCAUGUAGGAUAUCAGCACGAUAAGUGCUGAGAAGGACUACCAGCUC [Denovo 83]
apparent KD of MS2 coat protein (input ligand: FMN 200 uM): 22.4 nM | apparent KD of MS2 coat protein (input ligand: none): 18.5 nM

UCACAGUGUCGUUAUCCGUAGCGAACAUGAGGAUCACCCAUGUAGGAUAUGUUAUUAAACUAAUAACAGAAGGACGUUAGUCGG [Ex NG3 #21]
apparent KD of MS2 coat protein (input ligand: FMN 200 uM): 94.3 nM | apparent KD of MS2 coat protein (input ligand: none): 36 nM

UCAUACAUGAGGAUCUCCCAUGACAUGAGGAUCACCCAUGUGCAGGAUAUACGUGAUAUAAUAUAGUAGAAGGGCAGACUAUAU [LRO008_Exclusion NG 3]
apparent KD of MS2 coat protein (input ligand: FMN 200 uM): 192 nM | apparent KD of MS2 coat protein (input ligand: none): 157 nM

UGUUGUUACGCAGGAUAUUGCCAACAGGCAGUAGGAUAUCCGAAAGGAGAAGGACCGCCAACAGGCGAGAAGGGCGGGUUAACA [pwkr exNG2 2xF7 2FMN.10 scored 83]
apparent KD of MS2 coat protein (input ligand: FMN 200 uM): 35 nM | apparent KD of MS2 coat protein (input ligand: none): 57.9 nM

UUCUGUGCCCAAAGUUUAAGCACAUGAGGAUCACCCAUGUGAAAGGAUAUGUGGCGUGUAACGUUAUAGAAGGUUCACAAUAAA [Edorcetila]
apparent KD of MS2 coat protein (input ligand: FMN 200 uM): 74.9 nM | apparent KD of MS2 coat protein (input ligand: none): 33.1 nM
